IntAct's records for PubMed 19361433

B1: Probable ATP-dependent transporter SufC (Escherichia coli (strain K12)), P77499 (parent)
chain: MLSIKDLHVSVEDKAILRGLSLDVHPGEVHAIMGPNGSGKSTLSATLAGREDYEVTGGTVEFKGKDLLALSPEDRAGEGIFMAFQYPVEIPGVSNQFFLQTALNAVRSYRGQETLDRFDFQDLMEEKIALLKMPEDLLTRSVNVGFSGGEKKRNDILQMAVLEPELCILDESDSGLDIDALKVVADGVNSLRDGKRSFIIVTHYQRILDYIKPDYVHVLYQGRIVKSGDFTLVKQLEEQGYGWLTEQQ
partner: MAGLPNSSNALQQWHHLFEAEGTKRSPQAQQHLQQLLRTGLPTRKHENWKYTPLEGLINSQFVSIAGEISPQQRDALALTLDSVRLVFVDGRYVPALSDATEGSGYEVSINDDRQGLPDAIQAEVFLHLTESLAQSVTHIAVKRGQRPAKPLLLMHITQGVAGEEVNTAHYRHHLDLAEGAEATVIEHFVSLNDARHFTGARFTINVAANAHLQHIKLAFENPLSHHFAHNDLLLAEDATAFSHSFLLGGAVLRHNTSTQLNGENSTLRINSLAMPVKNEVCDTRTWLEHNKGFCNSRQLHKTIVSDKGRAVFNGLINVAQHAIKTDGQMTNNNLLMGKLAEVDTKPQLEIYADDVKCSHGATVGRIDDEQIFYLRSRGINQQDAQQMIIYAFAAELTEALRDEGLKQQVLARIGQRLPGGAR

Variants of: B1
Conditions: with sufd_ecoli sufD

| effect of a mutation on the interaction | Variant |
| --- | --- |
| increasing interaction | Y86C |
